Assay results reported in patent publication US10081665B2, “Peptides and combination of peptides for use in immunotherapy against various tumors” (immatics biotechnologies GmbH, priority 2015, dated 2018).

Target: HLA-A*02:01 (Homo sapiens, UniProt P04439, D140Y/D185E/D98H/E176V/E277Q/G131W/G231S/I119V/I121R/I166T/I218V/L300P/L318F/N151K/N90K/P208A/P217A/Q86G/Q94H/R138H/R169H/T345S)
Assay: MHC binding assay (UV-ligand exchange, beta2m ELISA)
Conditions: binding to HLA-A*02:01, β2m ELISA
Source text: Candidate peptides for T cell based therapies according to the present invention were further tested for their MHC binding capacity (affinity). The individual peptide-MHC complexes were produced by UV-ligand exchange, where a UV-sensitive peptide is cleaved upon UV-irradiation, and exchanged with the peptide of interest as analyzed. Only peptide candidates that can effectively bind and stabilize the peptide-receptive MHC molecules prevent dissociation of the MHC complexes. To determine the yield of the exchange reaction, an ELISA was performed based on the detection of the light chain (β2m) of stabilized MHC complexes. The assay was performed as generally described in Rodenko et al. (Rodenko et al., 2006).
96 well MAXISorp plates (NUNC) were coated over night with 2 ug/ml streptavidin in PBS at room temperature, washed 4× and blocked for 1 h at 37° C. in 2% BSA containing blocking buffer. Refolded HLA-A*02:01/MLA-001 monomers served as standards, covering the range of 15-500 ng/ml. Peptide-MHC monomers of the UV-exchange reaction were diluted 100 fold in blocking buffer. Samples were incubated for 1 h at 37° C., washed four times, incubated with 2 ug/ml HRP conjugated anti-82m for 1 h at 37° C., washed again and detected with TMB solution that is stopped with […]. Absorption was measured at 450 nm. Candidate peptides that show a high exchange yield (preferably higher than 50%, most preferred higher than 75%) are generally preferred for a generation and production of antibodies or fragments thereof, and/or T cell receptors or fragments thereof, as they show sufficient avidity to the MHC molecules and prevent dissociation of the MHC complexes.

Substance: 80 (VLTGQVHEL; listed as Homo sapiens) [compound 80]
- Peptide exchange (MHC class I binding score, peptide exchange yield): +++ (≥50 = +++)

Substance: 38 (VLQQESNFL; listed as Homo sapiens) [compound 38]
- Peptide exchange (MHC class I binding score, peptide exchange yield): ++ (≥20% = ++)

Substance: 25 (LLWGHPRVALA; listed as Homo sapiens) [compound 25]
- Peptide exchange (MHC class I binding score, peptide exchange yield): +++ (≥50 = +++)

Substance: 274 (TLYNPERTITV; listed as Homo sapiens) [compound 274]
- Peptide exchange (MHC class I binding score, peptide exchange yield): +++ (≥50 = +++)

Substance: 105 (AMLASQTEA; listed as Homo sapiens) [compound 105]
- Peptide exchange (MHC class I binding score, peptide exchange yield): ++ (≥20% = ++)

Substance: 278 (VLEDKVLSV; listed as Homo sapiens) [compound 278]
- Peptide exchange (MHC class I binding score, peptide exchange yield): +++ (≥50 = +++)

Substance: 53 (AQHLSTLLL; listed as Homo sapiens) [compound 53]
- Peptide exchange (MHC class I binding score, peptide exchange yield): + (≥10% = +)

Substance: 253 (KLLAVIHEL; listed as Homo sapiens) [compound 253]
- Peptide exchange (MHC class I binding score, peptide exchange yield): +++ (≥50 = +++)

Substance: 155 (TLDSYLKAV; listed as Homo sapiens) [compound 155]
- Peptide exchange (MHC class I binding score, peptide exchange yield): ++ (≥20% = ++)

Substance: 280 (HLWGHALFL; listed as Homo sapiens) [compound 280]
- Peptide exchange (MHC class I binding score, peptide exchange yield): +++ (≥50 = +++)

Substance: 22 (LMYPYIYHV; listed as Homo sapiens) [compound 22]
- Peptide exchange (MHC class I binding score, peptide exchange yield): +++ (≥50 = +++)

Substance: 270 (TLLTFFHEL; listed as Homo sapiens) [compound 270]
- Peptide exchange (MHC class I binding score, peptide exchange yield): +++ (≥50 = +++)

Substance: 114 (LLFPSDVQTL; listed as Homo sapiens) [compound 114]
- Peptide exchange (MHC class I binding score, peptide exchange yield): ++ (≥20% = ++)

Substance: 279 (VLMDEGAVLTL; listed as Homo sapiens) [compound 279]
- Peptide exchange (MHC class I binding score, peptide exchange yield): ++ (≥20% = ++)

Substance: 63 (KLLPMVIQL; listed as Homo sapiens) [compound 63]
- Peptide exchange (MHC class I binding score, peptide exchange yield): +++ (≥50 = +++)

Substance: 103 (YLADTVQKL; listed as Homo sapiens) [compound 103]
- Peptide exchange (MHC class I binding score, peptide exchange yield): ++ (≥20% = ++)

Substance: 245 (ALLEEEEGV; listed as Homo sapiens) [compound 245]
- Peptide exchange (MHC class I binding score, peptide exchange yield): ++ (≥20% = ++)

Substance: 81 (ILAEEPIYI; listed as Homo sapiens) [compound 81]
- Peptide exchange (MHC class I binding score, peptide exchange yield): ++ (≥20% = ++)

Substance: 194 (KLLEEVQLL; listed as Homo sapiens) [compound 194]
- Peptide exchange (MHC class I binding score, peptide exchange yield): ++ (≥20% = ++)

Substance: 286 (FLTEMVHFI; listed as Homo sapiens) [compound 286]
- Peptide exchange (MHC class I binding score, peptide exchange yield): +++ (≥50 = +++)

Substance: 177 (ALINVLNAL; listed as Homo sapiens) [compound 177]
- Peptide exchange (MHC class I binding score, peptide exchange yield): +++ (≥50 = +++)

Substance: 268 (SLDKDIVAL; listed as Homo sapiens) [compound 268]
- Peptide exchange (MHC class I binding score, peptide exchange yield): ++ (≥20% = ++)

Substance: 259 (GPGIFPPPPPQP; listed as Homo sapiens) [compound 259]
- Peptide exchange (MHC class I binding score, peptide exchange yield): + (≥10% = +)

Substance: 275 (AVPPPPSSV; listed as Homo sapiens) [compound 275]
- Peptide exchange (MHC class I binding score, peptide exchange yield): ++ (≥20% = ++)

Substance: 195 (VIIQNLPAL; listed as Homo sapiens) [compound 195]
- Peptide exchange (MHC class I binding score, peptide exchange yield): +++ (≥50 = +++)

Substance: 182 (GLQDGFQITV; listed as Homo sapiens) [compound 182]
- Peptide exchange (MHC class I binding score, peptide exchange yield): +++ (≥50 = +++)

Substance: 116 (ALLSSVAEA; listed as Homo sapiens) [compound 116]
- Peptide exchange (MHC class I binding score, peptide exchange yield): ++ (≥20% = ++)

Substance: 45 (FLPVSVVYV; listed as Homo sapiens) [compound 45]
- Peptide exchange (MHC class I binding score, peptide exchange yield): +++ (≥50 = +++)

Substance: 55 (HLFDKIIKI; listed as Homo sapiens) [compound 55]
- Peptide exchange (MHC class I binding score, peptide exchange yield): +++ (≥50 = +++)

Substance: 249 (YLYQILQGI; listed as Homo sapiens) [compound 249]
- Peptide exchange (MHC class I binding score, peptide exchange yield): +++ (≥50 = +++)

Substance: 218 (SLTGANITV; listed as Homo sapiens) [compound 218]
- Peptide exchange (MHC class I binding score, peptide exchange yield): +++ (≥50 = +++)

Substance: 228 (SLLELDGINLRL; listed as Homo sapiens) [compound 228]
- Peptide exchange (MHC class I binding score, peptide exchange yield): +++ (≥50 = +++)

Substance: 208 (HLNNDRNPL; listed as Homo sapiens) [compound 208]
- Peptide exchange (MHC class I binding score, peptide exchange yield): ++ (≥20% = ++)

Substance: 76 (FTAEFLEKV; listed as Homo sapiens) [compound 76]
- Peptide exchange (MHC class I binding score, peptide exchange yield): +++ (≥50 = +++)

Substance: 79 (TVLEEIGNRV; listed as Homo sapiens) [compound 79]
- Peptide exchange (MHC class I binding score, peptide exchange yield): ++ (≥20% = ++)

Substance: 44 (AVFNLVHVV; listed as Homo sapiens) [compound 44]
- Peptide exchange (MHC class I binding score, peptide exchange yield): +++ (≥50 = +++)

Substance: 147 (GLLSALENV; listed as Homo sapiens) [compound 147]
- Peptide exchange (MHC class I binding score, peptide exchange yield): +++ (≥50 = +++)

Substance: 159 (QLGPVPVTI; listed as Homo sapiens) [compound 159]
- Peptide exchange (MHC class I binding score, peptide exchange yield): +++ (≥50 = +++)

Substance: 176 (VQSGLRILL; listed as Homo sapiens) [compound 176]
- Peptide exchange (MHC class I binding score, peptide exchange yield): ++ (≥20% = ++)

Substance: 190 (SLSTELFKV; listed as Homo sapiens) [compound 190]
- Peptide exchange (MHC class I binding score, peptide exchange yield): +++ (≥50 = +++)

Substance: 98 (FVQEKIPEL; listed as Homo sapiens) [compound 98]
- Peptide exchange (MHC class I binding score, peptide exchange yield): +++ (≥50 = +++)

Substance: 136 (LLWDAPAKC; listed as Homo sapiens) [compound 136]
- Peptide exchange (MHC class I binding score, peptide exchange yield): +++ (≥50 = +++)

Substance: 239 (VIIKGLEEITV; listed as Homo sapiens) [compound 239]
- Peptide exchange (MHC class I binding score, peptide exchange yield): +++ (≥50 = +++)

Substance: 164 (MLIIRVPSV; listed as Homo sapiens) [compound 164]
- Peptide exchange (MHC class I binding score, peptide exchange yield): +++ (≥50 = +++)

Substance: 180 (RLYEEEIRI; listed as Homo sapiens) [compound 180]
- Peptide exchange (MHC class I binding score, peptide exchange yield): +++ (≥50 = +++)

Substance: 162 (GLLGNLLTSL; listed as Homo sapiens) [compound 162]
- Peptide exchange (MHC class I binding score, peptide exchange yield): +++ (≥50 = +++)

Substance: 241 (KQFEGTVEI; listed as Homo sapiens) [compound 241]
- Peptide exchange (MHC class I binding score, peptide exchange yield): +++ (≥50 = +++)

Substance: 282 (SLYALHVKA; listed as Homo sapiens) [compound 282]
- Peptide exchange (MHC class I binding score, peptide exchange yield): ++ (≥20% = ++)

Substance: 212 (MTLSEIHAV; listed as Homo sapiens) [compound 212]
- Peptide exchange (MHC class I binding score, peptide exchange yield): ++ (≥20% = ++)

Substance: 74 (GLAFLPASV; listed as Homo sapiens) [compound 74]
- Peptide exchange (MHC class I binding score, peptide exchange yield): ++ (≥20% = ++)

Substance: 273 (SLNKQIETV; listed as Homo sapiens) [compound 273]
- Peptide exchange (MHC class I binding score, peptide exchange yield): ++ (≥20% = ++)

Substance: 227 (SEMEELPSV; listed as Homo sapiens) [compound 227]
- Peptide exchange (MHC class I binding score, peptide exchange yield): + (≥10% = +)

Substance: 262 (LLLEAVWHL; listed as Homo sapiens) [compound 262]
- Peptide exchange (MHC class I binding score, peptide exchange yield): +++ (≥50 = +++)

Substance: 168 (VIFEGEPMYL; listed as Homo sapiens) [compound 168]
- Peptide exchange (MHC class I binding score, peptide exchange yield): +++ (≥50 = +++)

Substance: 235 (SLLNQPKAV; listed as Homo sapiens) [compound 235]
- Peptide exchange (MHC class I binding score, peptide exchange yield): ++ (≥20% = ++)

Substance: 130 (QLYGSAITL; listed as Homo sapiens) [compound 130]
- Peptide exchange (MHC class I binding score, peptide exchange yield): +++ (≥50 = +++)

Substance: 54 (YLVPGLVAA; listed as Homo sapiens) [compound 54]
- Peptide exchange (MHC class I binding score, peptide exchange yield): +++ (≥50 = +++)

Substance: 223 (ALHPVQFYL; listed as Homo sapiens) [compound 223]
- Peptide exchange (MHC class I binding score, peptide exchange yield): +++ (≥50 = +++)

Substance: 166 (LLGDSSFFL; listed as Homo sapiens) [compound 166]
- Peptide exchange (MHC class I binding score, peptide exchange yield): +++ (≥50 = +++)

Substance: 7 (ALLQALMEL; listed as Homo sapiens) [compound 7]
- Peptide exchange (MHC class I binding score, peptide exchange yield): +++ (≥50 = +++)

Substance: 174 (ALYSGDLHAA; listed as Homo sapiens) [compound 174]
- Peptide exchange (MHC class I binding score, peptide exchange yield): ++ (≥20% = ++)

Substance: 33 (TLDRNSLYV; listed as Homo sapiens) [compound 33]
- Peptide exchange (MHC class I binding score, peptide exchange yield): ++ (≥20% = ++)
